Patent publication US20150119341A1
[ ]: non-standard residue; d: D form. Nle = CCCC[C@H](N)C(=O)O; Orn = NCCC[C@H](N)C(=O)O; Dab = NCC[C@H](N)C(=O)O; Sar = CNCC(=O)O

Assays:
[1] = molecular target: recombinant human melanocortin-1 receptor (hMCR-1a) in membrane homogenates of HEK-293 cells (human) (UniProt Q01726); test: competitive inhibition of [I125]-NDP-alpha-MSH, hMCR-1 HEK-293 membranes
[2] = molecular target: recombinant human melanocortin-4 receptor (hMCR-4) in membrane homogenates of HEK-293 cells (human) (UniProt P32245); test: competitive inhibition of [I125]-NDP-alpha-MSH, hMCR-4 HEK-293 membranes
recombinant human melanocortin-4 receptor (hMCR-4) in membrane homogenates of HEK-293 cells (human), sequence (P32245 whole entry): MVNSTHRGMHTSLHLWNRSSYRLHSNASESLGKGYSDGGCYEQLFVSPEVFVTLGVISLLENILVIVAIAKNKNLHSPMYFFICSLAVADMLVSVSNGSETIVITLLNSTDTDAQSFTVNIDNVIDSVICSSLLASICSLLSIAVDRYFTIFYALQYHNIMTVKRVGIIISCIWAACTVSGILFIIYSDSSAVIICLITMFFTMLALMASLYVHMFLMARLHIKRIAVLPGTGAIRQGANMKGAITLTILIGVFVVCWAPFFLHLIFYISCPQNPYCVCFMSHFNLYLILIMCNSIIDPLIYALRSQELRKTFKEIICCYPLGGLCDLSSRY

recombinant human melanocortin-1 receptor (hMCR-1a) in membrane homogenates of HEK-293 cells (human), sequence (Q01726 whole entry): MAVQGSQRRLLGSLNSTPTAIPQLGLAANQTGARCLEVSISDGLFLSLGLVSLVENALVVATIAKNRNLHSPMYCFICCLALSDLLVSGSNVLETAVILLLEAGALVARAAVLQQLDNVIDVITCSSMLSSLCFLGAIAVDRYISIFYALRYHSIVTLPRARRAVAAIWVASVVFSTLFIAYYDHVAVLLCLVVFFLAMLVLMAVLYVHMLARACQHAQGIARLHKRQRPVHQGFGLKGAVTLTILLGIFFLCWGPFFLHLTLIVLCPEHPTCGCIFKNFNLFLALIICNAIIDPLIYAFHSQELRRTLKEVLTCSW

Ki [1] [nM]	Ki [2] [nM]	Binder
14	6200	Ac-[Nle]AH[dF]R[dP]W-NH2 (SMILES CCCC[C@H](NC(C)=O)C(=O)N[C@@H](C)C(=O)N[C@@H](Cc1c[nH]cn1)C(=O)N[C@H](Cc1ccccc1)C(=O)N[C@@H](CCCNC(=N)N)C(=O)N1CCC[C@@H]1C(=O)N[C@@H](Cc1c[nH]c2ccccc12)C(N)=O) [Ac-Nle-Ala-His-D-Phe-Arg-D-Pro-Trp-NH2]
2	870	Ac-[Nle]AH[dF]R[Sar]W-NH2 (SMILES CCCC[C@H](NC(C)=O)C(=O)N[C@@H](C)C(=O)N[C@@H](Cc1c[nH]cn1)C(=O)N[C@H](Cc1ccccc1)C(=O)N[C@@H](CCCNC(=N)N)C(=O)N(C)CC(=O)N[C@@H](Cc1c[nH]c2ccccc12)C(N)=O) [Ac-Nle-Ala-His-D-Phe-Arg-Sar-Trp-NH2]
2	650	Ac-[Nle]AH[dF]RP[dW]-NH2 (SMILES CCCC[C@H](NC(C)=O)C(=O)N[C@@H](C)C(=O)N[C@@H](Cc1c[nH]cn1)C(=O)N[C@H](Cc1ccccc1)C(=O)N[C@@H](CCCNC(=N)N)C(=O)N1CCC[C@H]1C(=O)N[C@H](Cc1c[nH]c2ccccc12)C(N)=O) [Ac-Nle-Ala-His-D-Phe-Arg-Pro-D-Trp-NH2]
2	7850	Ac-[Nle]A[Dab][dF]RAW-NH2 (SMILES CCCC[C@H](NC(C)=O)C(=O)N[C@@H](C)C(=O)N[C@@H](CCN)C(=O)N[C@H](Cc1ccccc1)C(=O)N[C@@H](CCCNC(=N)N)C(=O)N[C@@H](C)C(=O)N[C@@H](Cc1c[nH]c2ccccc12)C(N)=O) [Ac-Nle-Ala-Dab-D-Phe-Arg-Ala-Trp-NH2]
7	215	Ac-[Nle]AH[dF]RA[dW]-NH2 (SMILES CCCC[C@H](NC(C)=O)C(=O)N[C@@H](C)C(=O)N[C@@H](Cc1c[nH]cn1)C(=O)N[C@H](Cc1ccccc1)C(=O)N[C@@H](CCCNC(=N)N)C(=O)N[C@@H](C)C(=O)N[C@H](Cc1c[nH]c2ccccc12)C(N)=O) [Ac-Nle-Ala-His-D-Phe-Arg-Ala-D-Trp-NH2]
0.3	7580	Ac-[Nle]A[Orn][dF]RAW-NH2 (SMILES CCCC[C@H](NC(C)=O)C(=O)N[C@@H](C)C(=O)N[C@@H](CCCN)C(=O)N[C@H](Cc1ccccc1)C(=O)N[C@@H](CCCNC(=N)N)C(=O)N[C@@H](C)C(=O)N[C@@H](Cc1c[nH]c2ccccc12)C(N)=O) [Ac-Nle-Ala-Orn-D-Phe-Arg-Ala-Trp-NH2]
